Substrate in this assay: F protein of RSV (Long strain) (RSV (Long strain)) (UniProt P12568)
Description: cell-based or functional assay.

One may read the IC50 as the concentration needed to halve the response being measured.

Sequence of F protein of RSV (Long strain) (RSV (Long strain)) (P12568 26-574): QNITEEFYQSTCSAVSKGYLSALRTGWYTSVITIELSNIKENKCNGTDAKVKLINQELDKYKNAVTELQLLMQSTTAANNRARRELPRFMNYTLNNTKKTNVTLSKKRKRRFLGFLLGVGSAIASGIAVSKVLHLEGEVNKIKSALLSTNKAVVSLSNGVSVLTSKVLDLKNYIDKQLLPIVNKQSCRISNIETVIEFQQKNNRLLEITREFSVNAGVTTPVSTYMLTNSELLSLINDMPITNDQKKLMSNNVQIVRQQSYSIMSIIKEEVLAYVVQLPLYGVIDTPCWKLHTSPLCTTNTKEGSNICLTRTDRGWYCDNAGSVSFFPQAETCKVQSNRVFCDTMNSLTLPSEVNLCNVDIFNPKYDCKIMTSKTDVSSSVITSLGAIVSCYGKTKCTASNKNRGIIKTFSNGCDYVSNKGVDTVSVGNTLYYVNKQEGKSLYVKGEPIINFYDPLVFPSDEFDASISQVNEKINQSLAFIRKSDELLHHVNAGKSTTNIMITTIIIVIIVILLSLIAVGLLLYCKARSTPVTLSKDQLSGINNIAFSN

B1: P12f4 Fab (Fab, V domains shown)
VH: QVTLRESGPALVKPTQTLTLTCTFSGFSLSTPGMSVGWIRQPPGKALEWLADIWWDGKKHYNPSLKDRLTISKDTSKNQVVLKVTNMDPADTATYYCARDMIFNFYFDVWGQGTTVTVSS
VL: DIQMTQSPSTLSASVGDRVTITCSLSSRVGYMHWYQQKPGKAPKLLIYDTRGLPSGVPSRFSGSGSGTEFTLTISSLQPDDFATYYCFQGSGYPFTFGGGTKVEIK
Take B1: the IC50 came to 700 pM, the Mean IC50 (Control) turned out to be 0.0351 µg/mL and the Mean IC50 (Curve) was 0.0464 µg/mL.

B2: A1h5 Fab (Fab, V domains shown)
VH: QVTLRESGPALVKPTQTLTLTCTFSGFSLSTAGMSVGWIRQPPGKALEWLADIWWDGKKHYNPSLKDRLTISKDTSKNQVVLKVTNMDPADTATYYCARDMIFNWYFDVWGQGTTVTVSS
VL: DIQMTQSPSTLSASVGDRVTITCSLSSSVGYMHWYQQKPGKAPKLLIYDTFFHRSGVPSRFSGSGSGTEFTLTISSLQPDDFATYYCFQGSGYPFTFGGGTKVEIK
Consider B2, for which the Mean IC50 (Control) amounted to 0.176 µg/mL and the Mean IC50 (Curve) was found to be 0.194 µg/mL.

Values taken from patent publication US20110158985A1.
